In the nanobody polyreactivity screen of Harvey et al. (2022):

Assay: yeast display, Sf9 membrane polyspecificity reagent, FACS + sequencing; frameworks hold sequencing errors
Outline: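 Galactose induction of a Saccharomyces cerevisiae BJ5465 synthetic nanobody display library ran 36–48 hours. The cells were then stained for 1 hour at 4 °C with 10% biotinylated, detergent-solubilized Sf9 membrane reagent, pulled down on streptavidin microbeads and FACS-sorted into low and high (top ~1%) gates on expression and reagent-binding fluorescence. Labels for polyreactivity follow the gate of origin.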

Sequence | polyreactivity (PSR sort gate)
QVQLVESGGGLVQPGGSLRLSCAASGFIFGYYTMGWYRQAPGKERELVAVITSNGARTYYADSVKGRFTISRDNAKNTVYLQMNSLKPEDTAVYYCNAYRLSVSVGYDYWGQGTQVTVSS | high polyreactivity
HVQLVESGGGLVQAGGSLRLSCAASGSIFIIYAMGWYRQAPGKERELVAAMDWSDGSTYYADSVKGRFTISRDNANNTVYLQMNSLKPEDTAVYYCNTQSRTLGWPLDYWGQGTQVTVSS | high polyreactivity
QVQLVESGGGLVQAGGSLRLSCAASGRTFYRYAMGWYRQAPGKERELVAAITWSGGSTYYADSVKGRFTTSRDNAKNTVYLQMNSLKPEDTAVYYCAADAALITYYGWADMYYWGQGTQVTVSS | low polyreactivity
QVQLVESGGGLVQAGGSLRLSCAASGSIFAVNTMGWYIQAPGKERELVAAISQRGSSTYYADSVKGRFTISRDNAKNTVYLQMNSLKPEDTAVYYCAKRFIYGRYNYWGQGTQVTVSS | high polyreactivity
QVQLVESGGGLVQAGGSHRLSCAASGRTFSPYVMGWSREAPGKEREYVARITWSGGSTYYADSVKGRFTISRDNAMYTVYLQMNSLKPEDTAVYYCNARGVFYVYKHDYWGQGTQVTVSS | high polyreactivity
QVQLVESGGGLVQAGGSLRLSCAASGSTFYKNAMGWYRQAPGKEREFVAAIRSGDSTNYADSVKGRFTISRDNAKNTVYIQMNSLKPEDSAVYYCARDRPGDYAGYDYWGQGSQVTVSS | low polyreactivity
QVQLVESGGGLVQAGGSLRLSCAASGFTFQYYDMGWYRQAPGKERELVAAISWSGGSTYYADSVKGRFTISRDNAKNTVYFQMNSLKPEDTAVYYCAAGYTRSRHYTPYDYWGQGTQVTVSS | high polyreactivity
QVQLVESGGGLDQAGGSLRLSCAASGRIFGFYAMGWYRQAPGKERELVAAITINTGSTSYADSVKGRFTISRDNAKNTVYFQMNSLKPEDTAVYYCATDAAAPKYDYWGQGTQVTVSS | low polyreactivity
QEQLQESGGGLVQAGGSLRLSCAASGNISTHQLYMGSYRQAPGKEREFVAAINFGASTYYADSVKGRNTISRDNAKYTVYLQMNSLKPEDTAVYYCNADWYYYYEVDDYWGQGTQVTVSS | low polyreactivity
QVQLVESGGGLVQAGGSLRLSCAASGRIFFTNAMGWYRQAPGKETELVASIDDTGSTNYADSVKGRFTISRDNAKNTVYLQMNSLKPEDTAVYYCNGVYYSYRYGHDYWGQGTQVTVSS | low polyreactivity
QVQLLESGGGLVQAGRSLRLSCAASGRIFRYYAMGWYRQAPGKERELVAAISYSTGGTSTYADSVKGRFTISRDNAKTTVYLQMNSLKPEDTAVYYCAVRRQYRRAYSFSQSRYDYWGQGTQVTVSS | high polyreactivity
QVQLVQSRGGLVQAGGSLRLSCAASGSTFSGNAMGWYRPAPGKEREFVAAITSSGGSTYYADSVKGRFTISRDNAKNSVYLQMNSLKPEDTAVYYCATDNPFLWWFRPDQHGMGYWGQGTQVTVSS | low polyreactivity
QVQLVESGGGLVQAGGSLRLSCAASGSIFTPNAMGWYRQAPGKERELVAAISSSSDRTSYADSVKGRFTISRDNAKYTVYLQMNSLKPEDTAVYYCAAYSQKRYYWGQGTQVTVSS | high polyreactivity
QVQLVESGGGLVQAGGSLRLSCAASGSIFVKNAMGWYRQAPGKERELVAAISRSGGSTYYADSVKGRFTISRDNAKYTVYLQMNSLKPEDTAVYYCNAYGSYWDFDEWGQGTQVTVSS | high polyreactivity
QVQLVESGGGLVQAGGSLRLSCAATGLTIWHYVMGWYRQAPGKERELVATISSSGGSTFYADSVKGRFTISRDNAKNTVYLQMNSLKPEDTAVYYCNADQYSWRWRRKHDYWGQGTQVTVSS | high polyreactivity
QVQLVESGGGLVQAGGSLRLSCAASGRTFGVYVKGWYRQAPGKERELVAAIDDSGGSTYYADSVKGRFTISRDNAKNTVYLQMNSLKPEDTAVYYCAKTKTQYLTSEIRFDYWGQGTQVTVSS | low polyreactivity
QVQLVESGGGLVQAGGSLRLSCAASGFTFVYYGMGWYRQAPGKERELVADISSGGNTYYADSVKGRFTISRDNAKNTVYLQMNSLKPEETAVYYCNKDARDEEGSSRTYDYWGQGTQVTVSS | low polyreactivity
QVQLVESGGGLVQAGGSLRLSCAASGLIFSYNAMGWYRQAPGKERELVAAISYSGGSTYYADSVKGRYTISRDNAKYTVYLQMNSLKPEDTAVYYCAAVLSPDFYYWGQGTQVTVSS | high polyreactivity
QVQLVESGGGLVQAGGSLRLSCAASGSTLIANAMGWYRQAPGKERELVAGITYRGGDITTYADSVKGRFTISRDTAKNTVYLQMNSLKPEDTAVYYCAARVVWPTWARGGYWGQGTQVTVSS | low polyreactivity
QDQLVESGGGLVQAGGSLRLSCAASGSTFETNAMGWYRQAPGKERELVAAISGRGGSTYYADSVKGRFTFSRDNAKNTVYLQMNSLKPEDTAVFYCDATYGTGRRSKYGYCGQGTQVTVSS | high polyreactivity
QDQLVESGGGLVQAGGSLRLSCAASGFIFNKNAMGWYRQAPGKERELVAAITFGGGTTYYADSVKGRFTISRDNAKNTVYLQMNSLKPEDTAVYYCAKRYWRHPVFYLYDYWGQGTQVTVSS | high polyreactivity
QVQHVESGGGLVQAGGSLRLSCAASGSTISNNAMGWYRQAPGKERELVAGINSSGGRTYYADSVKGRFTISRDNAKNTVYLQMNSLKPEDTAVYYCNADNFRRYGYWGQGTQVTVSS | high polyreactivity

Sequence | polyreactivity (PSR sort gate)
QVQLVESGGGLVQAGGSLRLSCAASGRIFDIYDMGWYIQAPGKERELVAAITSGGNTYYADSVKWRFTISRDNAKNTVYLQMNSLKPEDTAVYYCNAARETRPRDYYWGQGTQVTVSS | low polyreactivity
QVQLAESGGGLVQAGGSLRLSCSASGSTFVAYAMGWYRQAPGKERELVAAITRSGGSTYYADSVKGRFTISRDNAKNTVYLQMNSLKPEDTAVFYCAARHYRSRDGYWGQGTQVTVSS | high polyreactivity
QVQLVESGGGLVQAGGSLRLSCAASGRIRPRNAMGWYRQAPGKERELVAGISSDGSTNYADSVKGRFTISRDNAKNTVYLQMNSLKQEDTAVYYCAADGVYDPNLYGYWGQGTQLTVSS | low polyreactivity
QVQLVESGGGLVQAGGSLRLSCAASGRTIVYNAMGWYRQAPGKERELVAAITSRGGSTHYADSVKGRFTISRDNAKNTVYLQMNSLKPEDTAVYYCAADFLSPAYRPSWYRFDYWGQGTQVTVSS | low polyreactivity
QVQLVESGGGLVQAGGSLRLSCAASGSIFWPYAMGWYRQAPGKERELVAAITWSGSSTYYADSVKGRFTISRDNAKNTVYLQMKSLKPEDTAVYYCAKRGWGIYDYWGQGTQVTVSS | low polyreactivity
LDQLVESGGGLVQAGGSLRLSCAASGSIFGPNAMGWNRKAPGKERELVAAISWSGASTYYADSVKGRFTITRDNEKNTVYLQMNSLKPEDTAVYYCAADYYGVSGSGYGYWGQGTQVTVSS | low polyreactivity
QVQLVESGGGLVQAGGSLRLSCAASGSTFFFNAMGWYRQAPGKERELVAGISSSGGSTHYADSVKGRFTISRDNAKNTVYLQMNSLKPEDTAVYYCNAQQYLPSEGDYWGQGTQVTVSS | low polyreactivity
QVQLVESGGGIVQAGGSLRLSCAASGRIFWYNAMGWYRQAPGKERELVAGITRSGGRTYYADCVKGRFTISRDNAKNTVYLQMNSLKPEYTAVYYCAAAPYARRDYEYWGQGTQVTVSS | high polyreactivity
QVQLVESGGGLVQAGGSLRLSCAASGRTFARNAMGWYRQAPGKERELVAAITSGGSTNYADSVKGRFTISRDNAKNTVYLQMNSLIPEDTAVYYCAADGAQYYYGRYYYWGQGTQVTVSS | high polyreactivity
EVQLVESGGGLVQTGGSLRLSCAASGYIYSRYRMGWYRQAPGKGREIVAAISGGSSTNYADSVKGRFTISRDNSNNTVYLQMNSLRAEDTAVYYCAAYKIDSDTRVYWGQGTQVTVSS | low polyreactivity
QVQLVESGGGLVQAGGSLRLSCAASGFTFRYYAMGWYRQAPGKERELVAAISAGGGSTYYADSVKGRFTISRDNAKNTVYLQMNSLKPEDTAGYYCAAAGARPGYDYWGQGTQVTVSS | high polyreactivity
QVQLVESGGGLVQAGGSLRLSCAASGSIFWLYAMGWYRQAPGKERELVAAISWSGTSTNYADSVKGRFTISRDNAKNTVYLQMNSLKPEDTAVYYCAAKWHVRGRGARYRYDYDYWGQGTQVTVSS | low polyreactivity
QVQLVESGGGLVQAGGSLRLSCAASGSIFSYYDMGWYRQAPGKERELVASISSGGSTYYADSVKGRFTISRDNAKNTVYLQMNSLKPEDTAVYYFGAVSRWLYWEDVYWGQGTQVTVSS | low polyreactivity
QVQRVESGGGLVQAGGSLRLSFAASGSTDGRYARGWYSQAPVQDTELVAAITRNGGRTYYADSVKGCFTISRDNAKNTVYLQMNSLKPEHTADEYCAASGRSQYGDYDDWGQGSQVTVSS | high polyreactivity
QVQLVESGGGLVQAGGSLRLSCAASGSTFTAYAMGWYRQAPGKERELVAAINWSGGTTYYADSVKGRFTISRDNAKNTVYLQMNSLKPEDTAVYSCAVDGNFFGEVRPYDYWGQGTQVTVSS | low polyreactivity
QVQLVESGGGLVQAGGSLRLSCAASGSIFYPYAMGWYRQAPGKERELVARISSAGGTYYADSVKGRFTISRDNAKNTVYLQMNSLKPEDTAVYYCAAQARYRYYYWGQGTQVTVSS | high polyreactivity
QVQLVESGGGLVQAGGSLRLSCAASGFTFYGYAMGWYRQAPGKERELVAGISKNGGSTYYADSVKGRFTISRDNAKNTVYLQMNSLKPEDTAVYYCNKRSTLNTRRDYWGQGTQVTVSS | high polyreactivity
QVQLVESGGGLDQAGASLRLSCAASGRIYVVNAMGWYREAPGKEMELVATNTRSGGITFYPDSVKGRFTISRDNAKNTVYLQMNSLNPEVTAVYYCNADVLFYTYYTRGRFDFDYWGQGTQVTVSS | low polyreactivity
QVQLVESGGGLVQAGGSLRLSCAASGSTFSYFAMGWYRQAPGKERELVAAISWNGGSTYYADSVKGRFTISRDNAKNTVYLQMNSLKPEDTAVYYCAAHPAYRDSWGEYDYWGQGTQVTVSS | low polyreactivity
QVQLVESGGGLFQAGGSLRLSCAASGSIYRKYAMGWYRQAPGKERELVATISWNGGRTHYADSVKGRFTISRDNAKNTVYLQMKSLKPEDTAVYYCAAHTRTSGHNYWGQGTQVTVSS | low polyreactivity
QVQLVESVGGLVQAGGSLRLSCAASGITFPYYAMGWYRQAPGKERELVAAISRGDSTYYADSVKGRFTISRDNAKNTVYLQMNSLKPEDTAVYYCAARYGRYWSSCGSWTPYGYWGQGTQVTVSS | high polyreactivity
